According to patent publication US20240270846A1 (published 2024):

B1: GLS3000 G89W one-amino acid altered one-arm antibody (CE115HA000-pE22Hh / Kn010G3 / GLS3000 G89W-kappa) (antibody, human IgG1, kappa, L234A L235A, N297A, name in Kabat numbering)
heavy: QVQLVESGGGVVQPGRSLRLSCAASGFTFSNAWMHWVRQAPGKGLEWVAQIKAKSNNYATYYAESVKGRFTISRDDSKNSLYLQMNSLKTEDTAVYYCRYVHYGAYYGVDAWGQGTTVTVSSASTKGPSVFPLAPSSKSTSGGTAALGCLVKDYFPEPVTVSWNSGALTSGVHTFPAVLQSSGLYSLSSVVTVPSSSLGTQTYICNVNHKPSNTKVDKKVEPKSCDKTHTCPPCPAPEAAGGPSVFLFPPKPKDTLMISRTPEVTCVVVDVSHEDPEVKFNWYVDGVEVHNAKTKPREEQYASTYRVVSVLTVLHQDWLNGKEYKCKVSNKALPAPIEKTISKAKGQPREPQVYTLPPSRCELTKNQVSLSCAVKGFYPSDIAVEWESNGQPENNYKTTPPVLDSDGSFFLVSKLTVDKSRWQQGNVFSCSVMHEALHNHYTQKSLSLSPDYKDDDDK
chain: EPKSSDKTHTCPPCPAPELLGGPSVFLFPPKPKDTLMISRTPEVTCVVVDVSHEDPEVKFNWYVDGVEVHNAKTKPREEQYNSTYRVVSVLTVLHQDWLNGKEYKCKVSNKALPAPIEKTISKAKGQPREPQVCTLPPSRDELTKNQVSLWCLVKGFYPSDIAVEWESNGQPENNYKTTPPVLDSDGSFFLYSKLTVDKSRWQQGNVFSCSVMHEALHNRYTQKSLSLSP
light: DIVMTQSPLSLPVTPGEPASISCRSSQSLVHSNRNTYLHWYQQKPGQAPRLLIYKVSNRFSGVPDRFSGSGSGTDFTLKISRVEAEDVGVYYCWQGTQVPYTFGQGTKLEIKRTVAAPSVFIFPPSDEQLKSGTASVVCLLNNFYPREAKVQWKVDNALQSGNSQESVTEQDSKDSTYSLSSTLTLSKADYEKHKVYACEVTHQGLSSPVTKSFNRGEC
notes: One-arm antibody; substitution position in Kabat numbering; also called L chain altered form, Kabat 89 G to W
B2: GLS3000 G91T one-amino acid altered one-arm antibody (CE115HA000-pE22Hh / Kn010G3 / GLS3000 G91T-kappa) (antibody, human IgG1, kappa, L234A L235A, N297A, name in Kabat numbering)
heavy: QVQLVESGGGVVQPGRSLRLSCAASGFTFSNAWMHWVRQAPGKGLEWVAQIKAKSNNYATYYAESVKGRFTISRDDSKNSLYLQMNSLKTEDTAVYYCRYVHYGAYYGVDAWGQGTTVTVSSASTKGPSVFPLAPSSKSTSGGTAALGCLVKDYFPEPVTVSWNSGALTSGVHTFPAVLQSSGLYSLSSVVTVPSSSLGTQTYICNVNHKPSNTKVDKKVEPKSCDKTHTCPPCPAPEAAGGPSVFLFPPKPKDTLMISRTPEVTCVVVDVSHEDPEVKFNWYVDGVEVHNAKTKPREEQYASTYRVVSVLTVLHQDWLNGKEYKCKVSNKALPAPIEKTISKAKGQPREPQVYTLPPSRCELTKNQVSLSCAVKGFYPSDIAVEWESNGQPENNYKTTPPVLDSDGSFFLVSKLTVDKSRWQQGNVFSCSVMHEALHNHYTQKSLSLSPDYKDDDDK
chain: EPKSSDKTHTCPPCPAPELLGGPSVFLFPPKPKDTLMISRTPEVTCVVVDVSHEDPEVKFNWYVDGVEVHNAKTKPREEQYNSTYRVVSVLTVLHQDWLNGKEYKCKVSNKALPAPIEKTISKAKGQPREPQVCTLPPSRDELTKNQVSLWCLVKGFYPSDIAVEWESNGQPENNYKTTPPVLDSDGSFFLYSKLTVDKSRWQQGNVFSCSVMHEALHNRYTQKSLSLSP
light: DIVMTQSPLSLPVTPGEPASISCRSSQSLVHSNRNTYLHWYQQKPGQAPRLLIYKVSNRFSGVPDRFSGSGSGTDFTLKISRVEAEDVGVYYCGQTTQVPYTFGQGTKLEIKRTVAAPSVFIFPPSDEQLKSGTASVVCLLNNFYPREAKVQWKVDNALQSGNSQESVTEQDSKDSTYSLSSTLTLSKADYEKHKVYACEVTHQGLSSPVTKSFNRGEC
notes: One-arm antibody; substitution position in Kabat numbering; also called L chain altered form, Kabat 91 G to T
B3: GLS3000 G89Y one-amino acid altered one-arm antibody (CE115HA000-pE22Hh / Kn010G3 / GLS3000 G89Y-kappa) (antibody, human IgG1, kappa, L234A L235A, N297A, name in Kabat numbering)
heavy: QVQLVESGGGVVQPGRSLRLSCAASGFTFSNAWMHWVRQAPGKGLEWVAQIKAKSNNYATYYAESVKGRFTISRDDSKNSLYLQMNSLKTEDTAVYYCRYVHYGAYYGVDAWGQGTTVTVSSASTKGPSVFPLAPSSKSTSGGTAALGCLVKDYFPEPVTVSWNSGALTSGVHTFPAVLQSSGLYSLSSVVTVPSSSLGTQTYICNVNHKPSNTKVDKKVEPKSCDKTHTCPPCPAPEAAGGPSVFLFPPKPKDTLMISRTPEVTCVVVDVSHEDPEVKFNWYVDGVEVHNAKTKPREEQYASTYRVVSVLTVLHQDWLNGKEYKCKVSNKALPAPIEKTISKAKGQPREPQVYTLPPSRCELTKNQVSLSCAVKGFYPSDIAVEWESNGQPENNYKTTPPVLDSDGSFFLVSKLTVDKSRWQQGNVFSCSVMHEALHNHYTQKSLSLSPDYKDDDDK
chain: EPKSSDKTHTCPPCPAPELLGGPSVFLFPPKPKDTLMISRTPEVTCVVVDVSHEDPEVKFNWYVDGVEVHNAKTKPREEQYNSTYRVVSVLTVLHQDWLNGKEYKCKVSNKALPAPIEKTISKAKGQPREPQVCTLPPSRDELTKNQVSLWCLVKGFYPSDIAVEWESNGQPENNYKTTPPVLDSDGSFFLYSKLTVDKSRWQQGNVFSCSVMHEALHNRYTQKSLSLSP
light: DIVMTQSPLSLPVTPGEPASISCRSSQSLVHSNRNTYLHWYQQKPGQAPRLLIYKVSNRFSGVPDRFSGSGSGTDFTLKISRVEAEDVGVYYCYQGTQVPYTFGQGTKLEIKRTVAAPSVFIFPPSDEQLKSGTASVVCLLNNFYPREAKVQWKVDNALQSGNSQESVTEQDSKDSTYSLSSTLTLSKADYEKHKVYACEVTHQGLSSPVTKSFNRGEC
notes: One-arm antibody; substitution position in Kabat numbering; also called L chain altered form, Kabat 89 G to Y
B4: GLS3000 G91P one-amino acid altered one-arm antibody (CE115HA000-pE22Hh / Kn010G3 / GLS3000 G91P-kappa) (antibody, human IgG1, kappa, L234A L235A, N297A, name in Kabat numbering)
heavy: QVQLVESGGGVVQPGRSLRLSCAASGFTFSNAWMHWVRQAPGKGLEWVAQIKAKSNNYATYYAESVKGRFTISRDDSKNSLYLQMNSLKTEDTAVYYCRYVHYGAYYGVDAWGQGTTVTVSSASTKGPSVFPLAPSSKSTSGGTAALGCLVKDYFPEPVTVSWNSGALTSGVHTFPAVLQSSGLYSLSSVVTVPSSSLGTQTYICNVNHKPSNTKVDKKVEPKSCDKTHTCPPCPAPEAAGGPSVFLFPPKPKDTLMISRTPEVTCVVVDVSHEDPEVKFNWYVDGVEVHNAKTKPREEQYASTYRVVSVLTVLHQDWLNGKEYKCKVSNKALPAPIEKTISKAKGQPREPQVYTLPPSRCELTKNQVSLSCAVKGFYPSDIAVEWESNGQPENNYKTTPPVLDSDGSFFLVSKLTVDKSRWQQGNVFSCSVMHEALHNHYTQKSLSLSPDYKDDDDK
chain: EPKSSDKTHTCPPCPAPELLGGPSVFLFPPKPKDTLMISRTPEVTCVVVDVSHEDPEVKFNWYVDGVEVHNAKTKPREEQYNSTYRVVSVLTVLHQDWLNGKEYKCKVSNKALPAPIEKTISKAKGQPREPQVCTLPPSRDELTKNQVSLWCLVKGFYPSDIAVEWESNGQPENNYKTTPPVLDSDGSFFLYSKLTVDKSRWQQGNVFSCSVMHEALHNRYTQKSLSLSP
light: DIVMTQSPLSLPVTPGEPASISCRSSQSLVHSNRNTYLHWYQQKPGQAPRLLIYKVSNRFSGVPDRFSGSGSGTDFTLKISRVEAEDVGVYYCGQPTQVPYTFGQGTKLEIKRTVAAPSVFIFPPSDEQLKSGTASVVCLLNNFYPREAKVQWKVDNALQSGNSQESVTEQDSKDSTYSLSSTLTLSKADYEKHKVYACEVTHQGLSSPVTKSFNRGEC
notes: One-arm antibody; substitution position in Kabat numbering; also called L chain altered form, Kabat 91 G to P
B5: GLS3000 G91Y one-amino acid altered one-arm antibody (CE115HA000-pE22Hh / Kn010G3 / GLS3000 G91Y-kappa) (antibody, human IgG1, kappa, L234A L235A, N297A, name in Kabat numbering)
heavy: QVQLVESGGGVVQPGRSLRLSCAASGFTFSNAWMHWVRQAPGKGLEWVAQIKAKSNNYATYYAESVKGRFTISRDDSKNSLYLQMNSLKTEDTAVYYCRYVHYGAYYGVDAWGQGTTVTVSSASTKGPSVFPLAPSSKSTSGGTAALGCLVKDYFPEPVTVSWNSGALTSGVHTFPAVLQSSGLYSLSSVVTVPSSSLGTQTYICNVNHKPSNTKVDKKVEPKSCDKTHTCPPCPAPEAAGGPSVFLFPPKPKDTLMISRTPEVTCVVVDVSHEDPEVKFNWYVDGVEVHNAKTKPREEQYASTYRVVSVLTVLHQDWLNGKEYKCKVSNKALPAPIEKTISKAKGQPREPQVYTLPPSRCELTKNQVSLSCAVKGFYPSDIAVEWESNGQPENNYKTTPPVLDSDGSFFLVSKLTVDKSRWQQGNVFSCSVMHEALHNHYTQKSLSLSPDYKDDDDK
chain: EPKSSDKTHTCPPCPAPELLGGPSVFLFPPKPKDTLMISRTPEVTCVVVDVSHEDPEVKFNWYVDGVEVHNAKTKPREEQYNSTYRVVSVLTVLHQDWLNGKEYKCKVSNKALPAPIEKTISKAKGQPREPQVCTLPPSRDELTKNQVSLWCLVKGFYPSDIAVEWESNGQPENNYKTTPPVLDSDGSFFLYSKLTVDKSRWQQGNVFSCSVMHEALHNRYTQKSLSLSP
light: DIVMTQSPLSLPVTPGEPASISCRSSQSLVHSNRNTYLHWYQQKPGQAPRLLIYKVSNRFSGVPDRFSGSGSGTDFTLKISRVEAEDVGVYYCGQYTQVPYTFGQGTKLEIKRTVAAPSVFIFPPSDEQLKSGTASVVCLLNNFYPREAKVQWKVDNALQSGNSQESVTEQDSKDSTYSLSSTLTLSKADYEKHKVYACEVTHQGLSSPVTKSFNRGEC
notes: One-arm antibody; substitution position in Kabat numbering; also called L chain altered form, Kabat 91 G to Y
B6: GLS3000 K74T one-amino acid altered one-arm antibody (CE115HA000-pE22Hh / Kn010G3 / GLS3000 K74T-kappa) (antibody, human IgG1, kappa, L234A L235A, N297A, name in Kabat numbering)
heavy: QVQLVESGGGVVQPGRSLRLSCAASGFTFSNAWMHWVRQAPGKGLEWVAQIKAKSNNYATYYAESVKGRFTISRDDSKNSLYLQMNSLKTEDTAVYYCRYVHYGAYYGVDAWGQGTTVTVSSASTKGPSVFPLAPSSKSTSGGTAALGCLVKDYFPEPVTVSWNSGALTSGVHTFPAVLQSSGLYSLSSVVTVPSSSLGTQTYICNVNHKPSNTKVDKKVEPKSCDKTHTCPPCPAPEAAGGPSVFLFPPKPKDTLMISRTPEVTCVVVDVSHEDPEVKFNWYVDGVEVHNAKTKPREEQYASTYRVVSVLTVLHQDWLNGKEYKCKVSNKALPAPIEKTISKAKGQPREPQVYTLPPSRCELTKNQVSLSCAVKGFYPSDIAVEWESNGQPENNYKTTPPVLDSDGSFFLVSKLTVDKSRWQQGNVFSCSVMHEALHNHYTQKSLSLSPDYKDDDDK
chain: EPKSSDKTHTCPPCPAPELLGGPSVFLFPPKPKDTLMISRTPEVTCVVVDVSHEDPEVKFNWYVDGVEVHNAKTKPREEQYNSTYRVVSVLTVLHQDWLNGKEYKCKVSNKALPAPIEKTISKAKGQPREPQVCTLPPSRDELTKNQVSLWCLVKGFYPSDIAVEWESNGQPENNYKTTPPVLDSDGSFFLYSKLTVDKSRWQQGNVFSCSVMHEALHNRYTQKSLSLSP
light: DIVMTQSPLSLPVTPGEPASISCRSSQSLVHSNRNTYLHWYQQKPGQAPRLLIYKVSNRFSGVPDRFSGSGSGTDFTLTISRVEAEDVGVYYCGQGTQVPYTFGQGTKLEIKRTVAAPSVFIFPPSDEQLKSGTASVVCLLNNFYPREAKVQWKVDNALQSGNSQESVTEQDSKDSTYSLSSTLTLSKADYEKHKVYACEVTHQGLSSPVTKSFNRGEC
notes: One-arm antibody; substitution position in Kabat numbering; also called L chain altered form, Kabat 74 K to T

target: T1, CD3 epsilon homodimer protein (UniProt P07766 23-126); assay: SPR Biacore T200, CD3 epsilon homodimer immobilised on CM4, one-arm antibody as analyte, single-cycle kinetics; reference unaltered GLS3000 antibody;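 also: CD3 epsilon homodimer attached to the CM4 chip via amine coupling, measured at 25 °C with HBS-EP+ as running buffer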
T1 construct: also called CD3 (CD3 epsilon)
T1 sequence (P07766 23-126): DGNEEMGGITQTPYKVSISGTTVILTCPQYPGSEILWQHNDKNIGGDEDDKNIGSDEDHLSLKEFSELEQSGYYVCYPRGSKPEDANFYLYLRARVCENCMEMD
Method: An appropriate amount of CD3 epsilon homodimer protein was immobilized onto Sensor chip CM4 (GE Healthcare Japan Corp.) by the amine coupling method. Then, the antibody having an appropriate concentration was injected thereto as an analyte and allowed to interact with the CD3 epsilon homodimer protein on the sensor chip. Then, the sensor chip was regenerated by the injection of 10 mmol/L glycine-HCl (pH 1.5). The assay was conducted at 25 degrees C., and HBS-EP+(GE Healthcare Japan Corp.) was used as a running buffer. […] Each parameter was calculated using Biacore T200 Evaluation Software (GE Healthcare Japan Corp.).
Specifically, when the amount of the GLS3000-containing antibody bound was defined as X and the amount of the L chain one-amino acid altered form bound was defined as Y, a value of Z (ratio of amounts bound)=Y/X was used.

Binder | dissociation constant KD(M) ratio of L chain altered form to GLS3000
B1 | 2.2 ratio
B2 | 39.9 ratio
B3 | 1.12 ratio
B4 | 23.1 ratio
B5 | 33.8 ratio
B6 | 0.85 ratio
